Measured values reported in patent US20150258192A1, “COMPOSITIONS AND METHODS FOR PREVENTING OR TREATING CHRONIC LUNG ALLOGRAFT DYSFUNCTION (CLAD) AND IDIOPATHIC PULMONARY FIBROSIS (IPF)” (priority 2014, published 2015).
No end group written: not given here.

Key:
Test in all cases: Kinase Profiling Assay
Assay type in all cases: biochemical
Details in all cases: peptide 100 μM
Abl(h) = Abl(h) (Homo sapiens, UniProt P00519)
Procedure, shortened: (§1)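 In this 266-kinase specificity panel, every measurement was duplicated. Transfer of labeled phosphate from ATP to a cationic substrate was quantified after the substrate adhered to an anionic filter membrane and was scintillation-counted, then related to a full-activity control.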

CK2(h) = CK2(h) (Homo sapiens, UniProt P68400)
Procedure, shortened: as §1

PKCθ(h) = PKCθ(h) (Homo sapiens, UniProt Q04759)
Procedure, shortened: as §1

Fms(h) = Fms(h) (Homo sapiens, UniProt P07333)
Procedure, shortened: as §1

SGK3(h) = biological target: T1, SGK3(h) (Homo sapiens, UniProt Q96BR1)
T1 construct: purchased Millipore
T1 sequence (Q96BR1 1-496): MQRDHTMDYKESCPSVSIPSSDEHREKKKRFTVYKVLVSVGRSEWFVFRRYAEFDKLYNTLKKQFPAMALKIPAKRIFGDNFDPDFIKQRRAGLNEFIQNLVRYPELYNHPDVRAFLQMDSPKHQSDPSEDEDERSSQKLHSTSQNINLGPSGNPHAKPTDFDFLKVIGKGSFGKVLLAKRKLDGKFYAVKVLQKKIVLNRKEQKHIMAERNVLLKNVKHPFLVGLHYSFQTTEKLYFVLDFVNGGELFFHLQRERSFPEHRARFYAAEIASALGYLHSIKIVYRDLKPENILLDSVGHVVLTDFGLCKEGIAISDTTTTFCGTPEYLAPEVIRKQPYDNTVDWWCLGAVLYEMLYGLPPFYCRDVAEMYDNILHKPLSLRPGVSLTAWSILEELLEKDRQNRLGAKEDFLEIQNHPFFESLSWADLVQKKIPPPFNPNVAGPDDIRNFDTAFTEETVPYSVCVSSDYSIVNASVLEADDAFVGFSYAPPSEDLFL
Procedure, shortened: as §1

MELK(h) = biological target: T2, MELK(h) (Homo sapiens, UniProt Q14680)
T2 construct: purchased Millipore
Procedure, shortened: as §1

CK2α2(h) = CK2α2(h) (Homo sapiens, UniProt P19784)
Procedure, shortened: as §1

PKCδ(h) = PKCδ(h) (Homo sapiens, UniProt Q05655)
Procedure, shortened: as §1

PDGFRα(D842V)(h) = PDGFRα(D842V)(h) (Homo sapiens, UniProt P16234, D842V)
Procedure, shortened: as §1

MAPK1(h) = biological target: T3, MAPK1(h) (Homo sapiens, UniProt P27361)
T3 construct: purchased Millipore
Procedure, shortened: as §1

Ax1(h) = Ax1(h) (Homo sapiens, UniProt P30530)
Procedure, shortened: as §1

ErbB4(h) = ErbB4(h) (Homo sapiens, UniProt Q15303)
Procedure, shortened: as §1

PKCη(h) = PKCη(h) (Homo sapiens, UniProt P24723)
Procedure, shortened: as §1

cKit(V560G)(h) = cKit(V560G)(h) (Homo sapiens, UniProt P10721, V560G)
Procedure, shortened: as §1

CDK2/cyclinE(h) = CDK2/cyclinE(h) (Homo sapiens, UniProt P24941)
Procedure, shortened: as §1

Tie2(R849W)(h) = Tie2(R849W)(h) (Homo sapiens, UniProt Q02763, R849W)
Procedure, shortened: as §1

Aurora-B(h) = Aurora-B(h) (Homo sapiens, UniProt Q96GD4)
Procedure, shortened: as §1

Flt3(h) = Flt3(h) (Homo sapiens, UniProt P36888)
Procedure, shortened: as §1

GRK5(h) = biological target: T4, GRK5(h) (Homo sapiens, UniProt P34947)
T4 construct: purchased Millipore
Procedure, shortened: as §1

IGF-1R(h) = biological target: T5, IGF-1R(h) (Homo sapiens, UniProt P08069)
T5 construct: purchased Millipore
Procedure, shortened: as §1

Ret(V804M)(h) = Ret(V804M)(h) (Homo sapiens, UniProt P07949, V804M)
Procedure, shortened: as §1

Abl(M351T)(h) = Abl(M351T)(h) (Homo sapiens, UniProt P00519, M351T)
Procedure, shortened: as §1

EGFR(T790M)(h) = EGFR(T790M)(h) (Homo sapiens, UniProt P00533, T790M)
Procedure, shortened: as §1

HIPK3(h) = biological target: T6, HIPK3(h) (Homo sapiens, UniProt Q9H422)
T6 construct: purchased Millipore
Procedure, shortened: as §1

Lck(h) = biological target: T7, Lck(h) (Homo sapiens, UniProt P06239)
T7 construct: purchased Millipore
Procedure, shortened: as §1

PAR-1Bα(h) = PAR-1Bα(h) (Homo sapiens, UniProt Q7KZI7)
Procedure, shortened: as §1

PKA(h) = PKA(h) (Homo sapiens, UniProt P17612)
Procedure, shortened: as §1

Chain of PKCθ(h) (Q04759 whole entry): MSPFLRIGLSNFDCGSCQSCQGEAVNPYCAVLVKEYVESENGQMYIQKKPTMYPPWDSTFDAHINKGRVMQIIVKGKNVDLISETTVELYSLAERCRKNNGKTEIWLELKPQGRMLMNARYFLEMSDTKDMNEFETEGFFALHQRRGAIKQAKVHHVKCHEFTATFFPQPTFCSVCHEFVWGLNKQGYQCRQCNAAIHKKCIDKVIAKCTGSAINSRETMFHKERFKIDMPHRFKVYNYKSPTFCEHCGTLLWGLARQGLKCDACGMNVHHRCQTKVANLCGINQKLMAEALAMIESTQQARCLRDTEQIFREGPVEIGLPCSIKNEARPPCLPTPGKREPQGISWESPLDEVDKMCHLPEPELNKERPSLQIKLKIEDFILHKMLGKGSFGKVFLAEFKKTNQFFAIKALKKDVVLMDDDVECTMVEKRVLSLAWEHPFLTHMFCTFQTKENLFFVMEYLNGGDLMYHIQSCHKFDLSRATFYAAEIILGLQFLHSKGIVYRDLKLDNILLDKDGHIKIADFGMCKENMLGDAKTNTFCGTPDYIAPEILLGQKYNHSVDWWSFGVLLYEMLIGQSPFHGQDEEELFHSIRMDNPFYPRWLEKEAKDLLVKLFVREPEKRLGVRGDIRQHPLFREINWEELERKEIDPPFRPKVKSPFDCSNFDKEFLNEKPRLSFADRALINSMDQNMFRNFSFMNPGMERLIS
T2 sequence (Q14680 whole entry): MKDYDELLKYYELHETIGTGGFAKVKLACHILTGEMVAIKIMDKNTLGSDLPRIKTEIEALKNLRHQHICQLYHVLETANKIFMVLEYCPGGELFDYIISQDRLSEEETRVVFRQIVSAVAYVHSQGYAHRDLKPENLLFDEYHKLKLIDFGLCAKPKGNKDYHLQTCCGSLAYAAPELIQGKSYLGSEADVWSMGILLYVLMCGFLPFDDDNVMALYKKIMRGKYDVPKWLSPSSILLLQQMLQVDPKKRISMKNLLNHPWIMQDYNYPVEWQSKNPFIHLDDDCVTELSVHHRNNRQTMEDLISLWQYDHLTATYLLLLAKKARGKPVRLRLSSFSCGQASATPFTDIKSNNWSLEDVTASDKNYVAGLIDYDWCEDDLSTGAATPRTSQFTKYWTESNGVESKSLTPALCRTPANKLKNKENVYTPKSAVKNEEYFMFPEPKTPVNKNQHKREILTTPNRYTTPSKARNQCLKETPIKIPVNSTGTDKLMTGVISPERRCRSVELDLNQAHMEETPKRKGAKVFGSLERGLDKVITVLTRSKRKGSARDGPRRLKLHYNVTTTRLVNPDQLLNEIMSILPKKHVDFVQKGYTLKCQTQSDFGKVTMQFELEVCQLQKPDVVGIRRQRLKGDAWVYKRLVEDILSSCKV
Chain of PKCη(h) (P24723 whole entry): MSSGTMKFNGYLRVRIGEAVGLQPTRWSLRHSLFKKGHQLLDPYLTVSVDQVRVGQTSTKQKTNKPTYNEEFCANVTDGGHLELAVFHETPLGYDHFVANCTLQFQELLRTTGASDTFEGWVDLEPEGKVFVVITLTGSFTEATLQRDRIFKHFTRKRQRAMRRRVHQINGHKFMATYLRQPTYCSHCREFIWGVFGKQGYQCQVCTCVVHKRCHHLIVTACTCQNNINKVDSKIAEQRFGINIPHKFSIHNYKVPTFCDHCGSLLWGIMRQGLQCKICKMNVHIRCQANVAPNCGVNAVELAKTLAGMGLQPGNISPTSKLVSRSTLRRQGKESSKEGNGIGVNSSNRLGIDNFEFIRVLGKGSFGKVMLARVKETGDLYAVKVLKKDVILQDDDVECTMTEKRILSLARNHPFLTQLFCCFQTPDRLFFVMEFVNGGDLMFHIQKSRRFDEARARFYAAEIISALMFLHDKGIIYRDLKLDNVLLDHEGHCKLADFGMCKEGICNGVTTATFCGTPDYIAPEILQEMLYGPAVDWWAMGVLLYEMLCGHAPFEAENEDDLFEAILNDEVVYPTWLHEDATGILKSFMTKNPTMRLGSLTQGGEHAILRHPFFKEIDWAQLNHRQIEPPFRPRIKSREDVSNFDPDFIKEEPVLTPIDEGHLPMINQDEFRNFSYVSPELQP
Chain of Aurora-B(h) (Q96GD4 whole entry): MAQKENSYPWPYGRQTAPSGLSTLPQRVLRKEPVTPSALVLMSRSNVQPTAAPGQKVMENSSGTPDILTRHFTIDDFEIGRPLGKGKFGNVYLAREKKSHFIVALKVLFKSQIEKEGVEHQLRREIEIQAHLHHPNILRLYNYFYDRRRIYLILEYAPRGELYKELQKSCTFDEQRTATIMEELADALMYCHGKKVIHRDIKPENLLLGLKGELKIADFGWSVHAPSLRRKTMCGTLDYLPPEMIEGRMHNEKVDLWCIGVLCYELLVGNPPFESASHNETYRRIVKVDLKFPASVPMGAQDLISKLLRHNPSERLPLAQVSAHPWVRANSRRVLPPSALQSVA
Chain of ErbB4(h) (Q15303 26-1308): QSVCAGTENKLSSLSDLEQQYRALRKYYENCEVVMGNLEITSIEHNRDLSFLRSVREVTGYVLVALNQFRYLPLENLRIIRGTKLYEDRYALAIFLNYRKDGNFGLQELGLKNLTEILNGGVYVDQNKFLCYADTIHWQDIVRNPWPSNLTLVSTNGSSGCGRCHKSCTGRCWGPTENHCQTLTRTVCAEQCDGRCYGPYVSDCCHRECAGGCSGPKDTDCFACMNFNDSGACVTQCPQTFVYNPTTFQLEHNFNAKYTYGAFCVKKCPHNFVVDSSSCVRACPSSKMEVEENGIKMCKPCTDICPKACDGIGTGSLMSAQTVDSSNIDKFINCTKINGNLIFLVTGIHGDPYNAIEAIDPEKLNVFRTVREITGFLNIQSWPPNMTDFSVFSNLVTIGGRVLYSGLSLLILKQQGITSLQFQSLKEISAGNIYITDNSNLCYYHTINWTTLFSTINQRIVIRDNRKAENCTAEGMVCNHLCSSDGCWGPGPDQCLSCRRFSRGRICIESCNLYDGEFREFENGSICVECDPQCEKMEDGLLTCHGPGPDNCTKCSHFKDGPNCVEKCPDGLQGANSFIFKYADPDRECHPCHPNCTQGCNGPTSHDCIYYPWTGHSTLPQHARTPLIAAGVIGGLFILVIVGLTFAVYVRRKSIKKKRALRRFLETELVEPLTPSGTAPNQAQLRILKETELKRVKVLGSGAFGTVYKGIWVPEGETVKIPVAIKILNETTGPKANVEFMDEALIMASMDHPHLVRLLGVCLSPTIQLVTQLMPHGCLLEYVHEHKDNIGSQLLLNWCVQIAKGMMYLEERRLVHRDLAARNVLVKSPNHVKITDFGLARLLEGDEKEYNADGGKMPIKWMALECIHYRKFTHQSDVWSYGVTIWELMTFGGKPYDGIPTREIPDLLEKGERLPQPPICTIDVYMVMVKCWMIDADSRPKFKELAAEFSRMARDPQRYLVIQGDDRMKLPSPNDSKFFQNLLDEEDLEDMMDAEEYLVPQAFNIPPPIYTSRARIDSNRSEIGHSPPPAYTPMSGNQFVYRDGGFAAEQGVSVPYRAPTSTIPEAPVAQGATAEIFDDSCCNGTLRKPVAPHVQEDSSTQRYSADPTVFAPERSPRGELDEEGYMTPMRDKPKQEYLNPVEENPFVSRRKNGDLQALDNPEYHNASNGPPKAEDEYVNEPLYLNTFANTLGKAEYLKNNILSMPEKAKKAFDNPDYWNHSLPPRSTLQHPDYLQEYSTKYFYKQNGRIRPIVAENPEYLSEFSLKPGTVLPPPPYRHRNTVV
Chain of CK2(h) (P68400 whole entry): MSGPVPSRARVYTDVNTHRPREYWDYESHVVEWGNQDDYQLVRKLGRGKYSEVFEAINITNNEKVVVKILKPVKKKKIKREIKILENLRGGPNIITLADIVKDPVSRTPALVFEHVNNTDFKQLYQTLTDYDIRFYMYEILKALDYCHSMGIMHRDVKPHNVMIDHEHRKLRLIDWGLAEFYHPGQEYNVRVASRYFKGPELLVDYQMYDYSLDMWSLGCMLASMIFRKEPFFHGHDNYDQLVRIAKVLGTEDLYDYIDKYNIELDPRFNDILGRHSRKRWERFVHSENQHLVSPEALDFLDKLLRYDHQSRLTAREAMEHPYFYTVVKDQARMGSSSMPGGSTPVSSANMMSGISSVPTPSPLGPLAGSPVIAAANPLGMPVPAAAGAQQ
Chain of CK2(h) (P67870 whole entry partner): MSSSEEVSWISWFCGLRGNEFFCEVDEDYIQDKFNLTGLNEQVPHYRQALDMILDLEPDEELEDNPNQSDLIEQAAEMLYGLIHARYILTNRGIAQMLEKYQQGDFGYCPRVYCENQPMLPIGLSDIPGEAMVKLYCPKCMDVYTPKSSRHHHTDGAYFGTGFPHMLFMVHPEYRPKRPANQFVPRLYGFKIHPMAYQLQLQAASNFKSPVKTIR
Chain of PKCδ(h) (Q05655 whole entry): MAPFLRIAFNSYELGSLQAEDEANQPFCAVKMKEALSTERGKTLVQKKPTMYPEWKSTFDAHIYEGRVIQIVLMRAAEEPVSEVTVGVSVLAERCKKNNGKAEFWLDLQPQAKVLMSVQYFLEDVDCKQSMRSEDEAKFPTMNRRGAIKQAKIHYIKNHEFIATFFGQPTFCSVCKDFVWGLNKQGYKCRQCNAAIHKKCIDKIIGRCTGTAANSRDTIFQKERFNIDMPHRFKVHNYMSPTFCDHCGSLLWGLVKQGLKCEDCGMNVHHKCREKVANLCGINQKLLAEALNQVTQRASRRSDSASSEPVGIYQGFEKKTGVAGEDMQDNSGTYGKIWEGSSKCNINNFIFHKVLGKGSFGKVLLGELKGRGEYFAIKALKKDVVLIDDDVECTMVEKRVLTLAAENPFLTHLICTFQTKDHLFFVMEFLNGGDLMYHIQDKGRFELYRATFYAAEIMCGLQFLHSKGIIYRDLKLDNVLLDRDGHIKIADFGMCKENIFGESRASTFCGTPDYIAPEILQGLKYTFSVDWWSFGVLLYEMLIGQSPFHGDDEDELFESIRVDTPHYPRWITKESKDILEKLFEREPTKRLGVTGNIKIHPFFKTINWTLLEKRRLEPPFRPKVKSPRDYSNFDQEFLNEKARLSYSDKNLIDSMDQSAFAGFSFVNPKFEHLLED

Sequence | % activity (Abl(h)) | % activity (CK2(h)) | % activity (PKCθ(h)) | % activity (Fms(h)) | % activity (SGK3(h)) | % activity (MELK(h)) | % activity (CK2α2(h)) | % activity (PKCδ(h)) | % activity (PDGFRα(D842V)(h)) | % activity (MAPK1(h)) | % activity (Ax1(h)) | % activity (ErbB4(h)) | % activity (PKCη(h)) | % activity (cKit(V560G)(h)) | % activity (CDK2/cyclinE(h)) | % activity (Tie2(R849W)(h)) | % activity (Aurora-B(h)) | % activity (Flt3(h)) | % activity (GRK5(h)) | % activity (Ret(V804M)(h)) | other results
KAFAKLAARLYRKALARQLGVAA [MMI-0400] | 84% | 101% | 76% | 37% | 8% | 17% | 96% | 90% | 118% | 100% | 41% | 0% | 98% | 124% | 83% | 108% | 150% | 18% | 131% | 87% | % activity (IGF-1R(h)): 90%
FAKLAARLYRKALARQLGVAA [MMI-0300] | 69% | 90% | 88% | 45% | 10% | 16% |  | 101% |  |  | 52% | 40% |  |  | 94% |  | 128% | 84% |  | 95% | % activity (Abl(M351T)(h)): 90%; % activity (EGFR(T790M)(h)): 100%; % activity (HIPK3(h)): 93%; % activity (Lck(h)): -2%
YARAAARQARAKALARQLGVAA [MMI-0100] |  |  |  | 89% | 95% | 74% |  |  |  | 108% | 81% | 73% |  | 94% |  |  |  |  |  | 92% | 
HRRIKAWLKKIKALARQLGVAA (Mammal) [MMI-0500] | 16% | 93% | 62% | 14% | -3% | 0% |  | 61% | 170% |  | 12% | 2% | 45% | 198% | 19% |  | 5% | 17% |  | 36% | % activity (PAR-1Bα(h)): 97%; % activity (Abl(M351T)(h)): 61%; % activity (PKA(h)): 118%; % activity (EGFR(T790M)(h)): 70%; % activity (HIPK3(h)): 85%; % activity (Lck(h)): 359%
YARAAARQARAKALNRQLGVA (Mammal) [MMI-0200] |  | 83% | 101% | 92% | 58% | 59% | 88% | 101% |  | 97% | 99% | 82% | 101% |  |  | 89% | 166% | 99% | 135% |  | % activity (PAR-1Bα(h)): 110%; % activity (PKA(h)): 110%; % activity (IGF-1R(h)): 49%
